Test results from the supplement of paper PMC9876800.

Test system: peptide library, one residue held at a place counted from the S/T acceptor
Assay: relative phosphorylation of the sub-library (ratio to the mean residue at this position); higher = residue favoured
Outline: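 Purified recombinant kinases (human or orthologue constructs) were incubated in 384-well plates with biotinylated degenerate peptide sub-libraries, each fixing one residue at one position around a central Ser/Thr. Peptides were at 50 μM, with 50 μM ATP spiked with γ-32P-ATP, for 90 min under kinase-specific conditions. Spots on streptavidin membranes were phosphorimaged and quantified by densitometry. Relative sub-library phosphorylation is a ratio to the mean residue at that position.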

Chain of NEK3, construct: Full length, human (P51956 whole entry, looked up): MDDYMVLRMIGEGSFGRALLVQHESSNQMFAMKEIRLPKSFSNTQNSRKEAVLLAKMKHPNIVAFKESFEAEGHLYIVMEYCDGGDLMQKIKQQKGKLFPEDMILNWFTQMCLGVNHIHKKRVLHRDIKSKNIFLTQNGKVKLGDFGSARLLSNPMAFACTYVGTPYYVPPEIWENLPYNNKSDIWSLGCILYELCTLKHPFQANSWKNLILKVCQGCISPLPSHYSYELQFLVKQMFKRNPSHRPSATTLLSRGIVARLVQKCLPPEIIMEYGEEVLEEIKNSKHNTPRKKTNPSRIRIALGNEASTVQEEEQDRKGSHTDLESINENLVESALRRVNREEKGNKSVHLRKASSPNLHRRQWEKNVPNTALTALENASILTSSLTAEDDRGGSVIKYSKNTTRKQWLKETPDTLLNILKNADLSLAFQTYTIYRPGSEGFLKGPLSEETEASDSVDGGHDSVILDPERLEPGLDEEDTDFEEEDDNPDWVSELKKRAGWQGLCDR
Chain of PIM2, construct: Full length with a 14aa C-terminal extension from Gateway cloning, human (Q9P1W9 whole entry, looked up): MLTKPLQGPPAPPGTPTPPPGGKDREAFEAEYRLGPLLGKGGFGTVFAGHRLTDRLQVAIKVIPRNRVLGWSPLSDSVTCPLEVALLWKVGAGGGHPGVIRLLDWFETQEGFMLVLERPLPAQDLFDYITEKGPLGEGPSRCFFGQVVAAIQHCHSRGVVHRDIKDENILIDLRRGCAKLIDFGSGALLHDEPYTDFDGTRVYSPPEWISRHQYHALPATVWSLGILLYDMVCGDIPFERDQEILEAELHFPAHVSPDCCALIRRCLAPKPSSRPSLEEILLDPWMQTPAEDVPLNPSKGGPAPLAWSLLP
Chain of NEK9, construct: Full length (D347-732), human (Q8TD19 whole entry, looked up): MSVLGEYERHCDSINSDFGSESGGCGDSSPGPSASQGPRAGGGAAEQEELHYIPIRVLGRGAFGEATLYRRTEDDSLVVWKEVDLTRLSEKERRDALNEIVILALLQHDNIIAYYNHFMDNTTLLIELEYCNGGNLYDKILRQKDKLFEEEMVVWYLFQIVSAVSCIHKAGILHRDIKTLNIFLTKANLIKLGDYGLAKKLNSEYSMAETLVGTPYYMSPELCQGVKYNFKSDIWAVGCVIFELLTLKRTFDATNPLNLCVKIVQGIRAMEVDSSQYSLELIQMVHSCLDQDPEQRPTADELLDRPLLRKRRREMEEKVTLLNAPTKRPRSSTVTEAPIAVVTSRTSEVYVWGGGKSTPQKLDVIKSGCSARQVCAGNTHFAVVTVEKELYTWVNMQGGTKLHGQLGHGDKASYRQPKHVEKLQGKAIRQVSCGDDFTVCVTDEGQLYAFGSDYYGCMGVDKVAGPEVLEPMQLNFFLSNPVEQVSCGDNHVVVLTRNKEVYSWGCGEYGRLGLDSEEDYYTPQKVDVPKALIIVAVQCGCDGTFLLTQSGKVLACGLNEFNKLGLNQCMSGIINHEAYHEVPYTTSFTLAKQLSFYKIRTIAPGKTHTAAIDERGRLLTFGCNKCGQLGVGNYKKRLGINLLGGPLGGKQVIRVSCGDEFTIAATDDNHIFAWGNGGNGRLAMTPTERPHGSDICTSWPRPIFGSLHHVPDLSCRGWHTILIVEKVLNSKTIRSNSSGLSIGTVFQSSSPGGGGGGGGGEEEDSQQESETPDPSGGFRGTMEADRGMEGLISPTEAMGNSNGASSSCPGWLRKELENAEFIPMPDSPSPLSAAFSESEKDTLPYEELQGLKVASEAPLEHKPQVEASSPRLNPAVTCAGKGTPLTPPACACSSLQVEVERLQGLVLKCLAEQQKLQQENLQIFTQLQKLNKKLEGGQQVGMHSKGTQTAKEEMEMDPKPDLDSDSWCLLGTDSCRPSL
Chain of PDPK1, construct: Full length, human (O15530 whole entry, looked up): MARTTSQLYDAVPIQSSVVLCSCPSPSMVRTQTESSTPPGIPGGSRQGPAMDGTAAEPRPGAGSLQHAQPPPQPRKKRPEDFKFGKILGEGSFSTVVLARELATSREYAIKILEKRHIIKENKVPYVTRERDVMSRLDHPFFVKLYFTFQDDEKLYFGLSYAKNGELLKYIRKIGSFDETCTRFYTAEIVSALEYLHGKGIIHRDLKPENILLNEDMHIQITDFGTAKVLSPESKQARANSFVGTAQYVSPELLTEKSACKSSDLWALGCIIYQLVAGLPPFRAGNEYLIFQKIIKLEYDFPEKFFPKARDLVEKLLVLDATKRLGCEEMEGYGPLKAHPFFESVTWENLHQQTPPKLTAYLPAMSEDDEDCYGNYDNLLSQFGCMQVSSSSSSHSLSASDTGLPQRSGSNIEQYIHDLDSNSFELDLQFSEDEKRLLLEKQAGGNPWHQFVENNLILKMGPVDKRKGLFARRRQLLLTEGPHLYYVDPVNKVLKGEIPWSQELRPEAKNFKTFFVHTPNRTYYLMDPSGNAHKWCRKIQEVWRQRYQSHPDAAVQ

NEK3, construct: Full length, human (from UniProt P51956)
relative phosphorylation
Details	at +1	at +2	at +3	at +4	at -1	at -2	at -3	at -4	at -5
A fixed	0.842	0.788	1.09	0.919	1.02	0.977	1.09	1.16	1.06
D fixed	0.145	0.299	0.257	0.346	0.588	0.551	0.343	0.456	0.653
E fixed	0.12	0.323	0.219	0.321	0.496	0.632	0.36	0.511	0.632
F fixed	1.67	0.786	1.1	0.796	0.841	1.37	1.98	1.43	1.05
G fixed	0.687	1.41	1.42	1.64	1.33	1.45	1.51	1.28	1.25
H fixed	1.13	1.45	1.07	1.35	1.45	1.21	1.11	1.03	1.17
I fixed	1.65	0.967	1.12	0.984	0.629	0.749	0.642	0.798	0.97
K fixed	0.579	1.4	1.07	1.24	1.07	0.866	0.478	1.02	1.1
L fixed	1.29	0.674	1.22	0.841	0.865	1.19	1.65	1.09	0.959
M fixed	1.94	1.09	1.05	0.982	1.59	1.42	1.87	1.2	1.27
N fixed	0.416	1.21	0.721	1.05	1.03	0.903	0.657	0.848	1.02
P fixed	0.351	0.719	1.2	1.38	0.204	0.259	0.495	0.597	0.821
Q fixed	0.719	0.826	0.873	0.769	0.846	0.826	0.561	0.867	0.74
R fixed	0.807	2.17	1.28	1.6	2	0.822	1.05	1.05	1.54
V fixed	1.66	0.904	1.01	0.768	0.739	0.734	0.486	0.823	0.7
W fixed	1.56	0.774	1.27	1.08	0.938	1.49	1.42	1.79	0.993
Y fixed	1.42	1.21	1.05	0.958	1.36	1.55	1.28	1.05	1.07
pThr fixed	0.188	0.183	0.26	0.166	0.146	0.255	0.386	0.57	0.612
pTyr fixed	0.165	0.278	0.254	0.254	0.414	0.612	0.399	0.446	0.642

NEK9, construct: Full length (D347-732), human (from UniProt Q8TD19)
relative phosphorylation
Details	at +1	at +2	at +3	at +4	at -1	at -2	at -3	at -4	at -5
A fixed	0.751	1.08	1.02	1.03	1	1.33	1.05	1.11	1.19
D fixed	0.268	0.44	0.594	0.754	0.889	1.27	0.574	1.06	1.04
E fixed	0.256	0.294	0.552	0.851	0.854	0.851	0.564	0.889	0.918
F fixed	1.37	0.606	1.04	0.775	0.843	1	1.43	0.9	1.07
G fixed	0.844	1.04	1.22	1.43	0.819	1.28	1.22	1.3	1.3
H fixed	0.912	1.42	1.14	1.18	1.21	1.08	0.953	1.09	1.02
I fixed	1.49	0.842	0.95	0.744	0.759	0.584	0.488	0.78	0.755
K fixed	0.951	1.69	1.12	1.25	1.12	0.543	0.73	1.01	1.01
L fixed	1.27	0.611	1.01	0.839	1.28	1.21	1.7	0.96	0.824
M fixed	1.54	0.782	0.956	0.899	1.39	1.53	2.32	1.12	0.953
N fixed	0.749	1.19	0.97	1.06	1.3	1.59	0.944	0.928	1.04
P fixed	0.209	0.57	0.921	1.12	0.426	0.667	0.937	1.12	0.991
Q fixed	1.14	0.892	0.943	1.01	1.12	0.996	0.808	0.85	0.764
R fixed	1.42	2.78	1.2	1.38	1.24	0.591	0.748	0.879	1.06
V fixed	1.3	0.894	0.887	0.696	0.688	0.461	0.407	0.688	0.895
W fixed	1.14	0.755	1.23	1.13	0.941	1.02	1.14	1.36	1.22
Y fixed	1.39	1.12	1.24	0.855	1.12	0.996	1	0.963	0.936
pThr fixed	0.614	0.45	0.557	0.85	0.364	0.573	0.816	0.901	0.836
pTyr fixed	0.517	0.399	0.599	0.722	1.01	0.91	0.826	0.787	0.886

PDPK1, construct: Full length, human (from UniProt O15530)
relative phosphorylation
Details	at +1	at +2	at +3	at +4	at -1	at -2	at -3	at -4	at -5
A fixed	0.609	1.18	0.927	1.02	0.812	1.48	1	1.13	1.12
D fixed	0.37	0.618	0.647	0.802	0.519	0.523	0.571	0.935	1.25
E fixed	0.402	0.537	0.665	0.815	0.518	0.561	0.615	0.927	1.04
F fixed	4.59	1.23	1.31	0.991	1.22	1.33	0.794	0.958	0.875
G fixed	0.638	0.747	1.19	1.13	1.43	1.16	1.04	1.27	1.21
H fixed	0.602	1.26	1.04	1.01	0.954	1	0.863	0.982	0.919
I fixed	1.15	1.16	1.07	0.955	0.673	0.733	0.789	0.909	0.973
K fixed	0.798	0.985	0.977	1.01	1.32	1.18	1.18	1.06	0.956
L fixed	1.16	1.01	0.967	1	0.958	0.974	0.779	0.863	0.826
M fixed	1.89	1.13	1.01	1.02	1.22	0.866	0.775	0.846	0.859
N fixed	0.515	0.759	0.822	0.822	1.11	0.931	0.754	0.866	0.864
P fixed	0.556	0.755	0.774	1.39	1.03	0.834	1	1.11	1.14
Q fixed	0.622	0.722	0.77	0.871	0.847	0.94	0.843	0.89	0.788
R fixed	0.875	1.18	1.29	1.21	1.61	1.49	3.72	1.18	1.09
V fixed	0.664	1.21	1.02	0.868	0.661	0.71	0.762	1.07	1.19
W fixed	0.709	0.98	1.28	1.13	0.873	0.987	0.749	0.994	0.919
Y fixed	0.848	1.54	1.25	0.947	1.24	1.3	0.761	1.02	0.99
pThr fixed	0.497	0.664	0.71	0.809	0.604	0.738	0.854	1.12	1.62
pTyr fixed	0.432	0.616	0.903	0.852	0.738	0.821	1.13	2.5	2.94

PIM2, construct: Full length with a 14aa C-terminal extension from Gateway cloning, human (from UniProt Q9P1W9)
relative phosphorylation
Details	at +1	at +2	at +3	at +4	at -1	at -2	at -3	at -4	at -5
A fixed	1.17	0.889	0.802	0.851	0.852	0.568	0.578	0.935	0.695
D fixed	0.638	0.729	0.859	0.833	0.593	0.32	0.269	0.497	0.413
E fixed	0.834	0.713	0.752	0.764	0.587	0.343	0.295	0.666	0.413
F fixed	0.653	0.75	0.909	0.874	0.887	0.911	0.388	0.776	0.547
G fixed	3.18	0.978	0.99	1.08	0.814	0.418	0.43	0.891	0.789
H fixed	0.871	1.48	1.31	1.04	1.16	2.64	0.78	1.01	1.01
I fixed	0.723	0.606	0.709	0.841	0.699	0.541	0.366	0.837	0.588
K fixed	1.14	1.33	1.24	1.28	1.33	1.7	1.91	1.9	2.91
L fixed	0.663	0.664	0.721	0.793	0.912	0.594	0.381	0.79	0.608
M fixed	0.861	0.71	0.783	0.845	0.921	0.649	0.397	0.985	0.6
N fixed	1.11	1.07	0.958	1.11	1.18	1.04	0.48	0.988	0.728
P fixed	0.727	1.13	1.04	1.3	1.86	0.524	0.453	0.755	0.791
Q fixed	1.04	1.02	1.1	1.05	0.875	0.787	0.591	0.948	0.807
R fixed	1.34	2.57	2.27	1.62	1.55	3.21	8.41	2.6	4.14
V fixed	0.765	0.65	0.695	0.793	0.871	0.571	0.405	0.906	0.642
W fixed	0.626	0.867	0.955	1.05	0.701	1.07	0.475	0.738	0.576
Y fixed	0.66	0.848	0.923	0.885	1.2	1.11	0.395	0.777	0.741
pThr fixed	0.857	0.654	0.668	0.888	0.379	0.35	0.342	0.632	0.471
pTyr fixed	0.608	0.69	0.846	0.748	0.862	0.62	0.325	0.545	0.522
